For 22 sequences, protein production results are on record in a protein production outcome set (Wang et al. 2014).

This data set in a line: label from the status in PepcDB records.
Consider “MSLERLRVAAYCRVSTDSEDQLNSYKSQVQYYTDMIKKNKEWVLADIYADEAITGTQVTKREDFQRMINDCMNGEIDMVFTKSISRFARNTLDTLKYVRMLKERNIAVYFEDEKINTLTMDGELLLVVLSSVAQQEVENISANVKKGLKMKMKRGELVGFQEGHHHHHH”, for which the protein production result is “not failed”.
Consider “MRASTLLIIAGMFIVSLYALIEVSFYSSQVTVHRPDVRAPVIEVPSINLTETINNRSVFYGVYHEPMSYPPGNRTVILFGHRTLYGSPFLHLDKLRAGDSVYLNWPGVGFAEYRVNRSFIVPASYQMPVNQGAKLFLITCHPLGSTRERLIVECHLEGIRPYQRNVRVDNPKSYYSIPIILGFLSAGLLVTRFYPVEEDRRFLLAAVIGLTVFLVLGYLFPIPPEFISDKLMEFNNILGI”, for which the protein production entry is on record as “failed”.
In the case of “MMITLVLSSFLSRDNIMRGMIYLIIATILAAIGWGASKMVVMTIPGDIFIGTRFLLASFVLAPFCFKQFRTLTGKQILALSGVGLVLSFALQVWVYAVSITTSLAEGAFIMSLAMIIAPIISWILFRNKPNKAFWIALPISILGMILLTLGNGWKLEASQLGFMLSALLLSMHFVLNKRIIGAITPLLSICVQLFVVGLSGCLYASLNSHPSFEITQHAVFWFLISTIVATAIRYLAQTLGQFSVNIETASLIMILEPVWTLVLSISVLHEVVAPQKLIGGAVIFLSLFVYIKLSRRLK”, the protein production entry is on record as “failed”.
Next, “MTTKFVVGYDGSAASRRALDFAMERAKAGGASIIVAHVLEWSPYSFLTPTEIEERHKRRAEEMARAETAILAPLKAELAGSGVEIETAIRYGQVADTLCDIATKSGAAQIFIARQGESGLAARVFGSVAGTLAQYAPVPCTIVP”: “failed”; “AIAAAPIESLLNEICESEDPIEELKSLRTAVLATPVSGLRPAVSGARLEIIFSLLNTNDKEQIEVCVEILSRVLQALEPVQLAQNYRTALQSGLNHPDDSVKVLTLTQIGRVAGHTEGVTQMLNNVEILHDVIQCISVERIAVAKEAIAALSKLSNTKAGLDALFRSDLLNKLKDVMLTSDIIRYRVYELIVEVSTVSPVSLGYCANSGLISQMLEELTGDDVLVRATAIEMVTNLAQSQHGRQYLAQQGIMDKISSVQKIFGAHNYLKLKTYLNEGSYYVTAVSAVTTEGAD”: “failed”; “MTLTLGEFIKILEATGYPVAYSHFTATPGNPVPAPPYICFLVDGSANLMADNKVYHKINDVNIELYTTKKDLVAEAKLEQVLDDHEIPYGSYGTFIESENMYQKFYETRLI”: “failed”.
Take “MTQAFSRVRFIMTQPSHPGNVGSAARAIKTMGFGELVLVAPRFPDMTAQPEAVALASGALDVLERAAVHDTLEEALAPVTLAFALTARVRDLGPPPCDIREAAGLARRHLDDTEAGVVAIVLGTERAGLTNAQIELCHRICHIPANPQYSSLNVAQALQLAAWELRYALLAGTGQPLLPASSAQQANPGAAPADGAAVQALLAHWEQALVAVGFLDPAHPKKLMPRMKHLLTRSALSRDEVDMLRGVCTAMIAPNRPK”: the protein production result is given as “failed”.
Next, “MALFIPTRLVSALALVGVSGLMLGCGSSGGGSNGTTASSAKAASSTPVAISSVAASSTAAVAGNIKLNQLGFLPESAKWAVVPAGVAASFTVINATTNAEVFSGNLSVAATWSASEESVKLADFSSVKTPGDYLLRVEGVNDSYPFTIANDVYSALTAASIKAFYFNRNSAELLATHAGMFARPPGHPDTQVLVHVSAASAARPAGTIISSPKGWYDAGDYNKYIVNSGIATYSLLAAYEHFPDIFNGQNLNIPESGDALPDLLNETLWNLEWMLSMQDPNDGGVYHKLTNKNFDGTVMPHQATSERYVVQKTTAAALDFAAVMATASRVVAQYESQLPGMSAKMLAAAESAWNWAVANPAITYKQPDDIKTGEYGDGNLADEFFWAAAELYITSKKDAYYTAMKPTETVATVPSWGDVRSLGWISLAHHRDNLTAVADKQLIANRIDGLAANLQSVWATSAYRVTMQKNDFVWGSNSVALGQAMMLVQGYRLNGKREYLDAAQAMLDYVLGRNATDMSFVTGYGDKSTLHPHHRPSEADGIVEPIPGFIAGGPQPGQQDKSGCSVSYPSNIAAKSYLDNWCSYASNEIAINWNAPLVYVSAAIQALTPK”: “failed”; “MIYFIRKKKWLKQLEKGEAMKYAILIGDGMADYPIEKLGNRTILQAARTPAMDSIAARGRAGLAKTVPDSFPPGSDVANMSILGYDPATYYSGRAPLEAASMGVALAADDVAFRCNLITTEHGMIKDYSAGHISSDEAEILIDTLDYELSTENIRFYPGISYRHLIVAGNNLGAETECTPPHDITGEKIDKYLPRGKDGEFFSELIEASKVVLELHPVNLKRVEEGKNPANSIWVWGQGYAPKFTAFMKLYGKKGAVISAVDLLKGIGIYAGLDVIEVHGATGYLDTNYEGKVRAAIEALKTRDLVFVHVEAPDEAGHEGSIEKKLKAVEDFDSRIVAPILEYAENSDEPFTILVLPDHPTPISVKTHTRDPIPFAIYRTDKPETDNVEAFDEESVKNGSMGLVKASDLIGILIKSLEHHHHHH”: “not failed”; “GPYATEVELREMVDIAQEHGIVEIEERRMIQSVFDLASTTVRQVMVPRPEMIWIESGKTAGQATALCVRSGHSRIPVIGENVDDIIGIVYLKDLVQKTYYATDGGKSVLVDEVMREATFVPDSKSLDALLQEMQEDHKHIAILVDEYGGVAGLISIEDILEEIVGEIADEYDAREVAPIEKIGDRTYRVVSRL”: “not failed”.
Turning to “PTWMVVNPVAGGGKWLQYEQHVIRELTKKYRLSIRQTDETTSAESLALQAKQSGVNQVIVSGGDGTVTEVASQLVGTDIQLGIIPLGTANALCHVLYGIGMKLSPVEKACEAILAGHCQRIDTAECNQ”, the protein production entry was “failed”.
For the sequence “SQELTLSPGPAKLTPTLDPTHRMELILSTSPAELTLDPACQPKLPLDSTCQPEMTFNPGPTELTLDPEHQPEETPAPSLAELTLEPVHRRPELLDACADLINDQWPRSRTSRLHSLGQSSDAFPLCLMLLSPHPTLEAAPVVVGHARLSRVLNQPQSLLVETVVVARALRGRGFGRRLMEGLEVFARARGFRKLHLTTHDQVHFYTHLGYQLGEPVQGLVFTSRRLPATLLNAFPTAPSPRPPRKAPNLTAQAAPRGPKGPPLPPPPPLPECLTISPPVPSGPPSKSLLETQYQNVRGRPIFWMEKDI”, the protein production entry is reported as “not failed”.
Next, “MIYLFTGNMGTGKTSRVVSMILNNEDGLFKMKLEDGTEVDRPLYFCHIDGLDKRQFKAHELTEEQIMSAPLRDVIPEGAVLIVDEAHYTYPVRAAGRPVPPYIQELTELRHHGHTVILMTQHPSQLDIFVRNLVSKHVHLERKAIGMKQYYWYKCVTSLDNPAGVSGVEVASWKPPKEAFKYYKSASQHQ”: “not failed”; “MKKKSFSIVIAGGGSTFTPGIVLMLLDHLEEFPIRKLKLYDNDKERQDRIAGACDVFIREKAPDIEFAATTDPEEAFTDVDFVMAHIRVGKYAMRALDEQIPLKYGVVGQETCGPGGIAYGMRSIGGVLEILDYMEKYSPDAWMLNYSNPAAIVAEATRRLRPNSKILNICDMPVGIEDRMAQILGLSSRKEMKVRYYGLNHFGWWTSIQDQEGNDLMPKLKEHVSQYGYIPKTEAEAVEASWNDTFAKARDVQAADPDTLPNTYLQYYLFPDDMVKKSNPNHTRANEVMEGREAFIFSQCDMITREQSSENSEIKIDDHASYIVDLARAIAYNTGERMLLIVENNGAIANFDPTAMVEVPCIVGSNGPEPITVGTIPQFQKGLMEQQVSVEKLTVEAWAEKSFQKLWQALILSKTVPNARVARLILEDLVEANKDFWPELDQSPTRIS”: “not failed”; “MSLAEHKGDVMIVDDDAHVRIAVKTILSDAGFHIISADSGGQCIDLLKKGFSGVVLLDIMMPGMDGWDTIRAILDNSLEQGIAIVMLTAKNAPDAKMIGLQEYVVDYITKPFDNEDLIEKTTFFMGFVRNQTGNEGHHHHHH”: “not failed”.
For “MPNSRPRPRRGAGGGAGAAGRDRLVARSLQSAEHCLGDQDFGTAYAHYLLVLSLAPELKDDVKETFQYTLFKWAEELHALSRIQDLLGCYEQALELFPDDEVICNSMGEHLFRMGFRDEAAGYFHKAVKLNPDFNDAKENFYRVANWLVERWHFIMLNDTRRNMVYNAAIQKAVCLGSRTVLDIGTGTGILSMFAKKAGAQSVYACELSKTMYELACDVVAANKMENGIKLLHMKSLDIEIPKHIPERVSLVVTETVDAGVFGEGIVESLIHAWEHLLLQPKTKEENGNCGKYGKVIPAGAVIFGMAVECAEIRRHHRVGAKDIAGIHLPTNVKFQSPAYTSVDTEETVEPYTTEKMSGIPGGYLPLTECFQIMKVDFNNLQELKSLATKKPHSLNVPAIKEGVLDAIMVWFVLQLDDEYSLSTSPSEETCWEQAVYPVQALEDYCIQPGDRVTMEASCHDCYLRIQGISILHLEHEMEVMKGFTKSKDLLSLGNEAELCSALANLQTSRPEALEQTCMLEPTEIALLNNIPYHEGFKTAMRKVLSSLAPELLWQPMDTHCQYMEMNSGSGQSDAAPSTADPFYVLDVSEGFSLLPILAGTLGHVKPYSSVEKDQHCIALDLIAEANHFPKETLEFWLRHIEDEAAVLQRPKSDKLWSIIILDVIEPSGLIQQELMEKAAISRCLLQSGGKIFPQYVLMFGMLVESQTLVEESAVQGTEHTLGLNIAPFINQFQVPIRVCLDLSSLPCVPLSQPVELLRLDLMTPYLNTSNKEVKVRVCRSGRVTAVPFWFHLCLDDEVRLDTSGEASHWKQAAVVLDNPIQVQAGEELVLSVEHHKSNVSIAVKP”, the protein production result was “failed”.
On to “RRHYIDAFGTGPGFAAVASFYPGCFRIKPPGGRDYDLVGPDIAQPLLLLMGDADTETPAAECVDKLTPLKAAGAPVEWHVYPSTTHCWDCQQLDGRSKTDVRGNHVAYRYQPDVVADSERRLFAFLER”, for which the protein production result is “failed”.
In the case of “MTIAATMLRAITVLMALLLLVAAGPAAAADEGGDLLEQFLGRKYEPVLKPLEIPEGTPPSEALFLYLNQGYGDAGVIGDFLAKGADANYADKEYRITLLHNVAHYGHAEATRILLAAGARVNAVNGEGNTPLFAAVHEGHDDVARILLDAGADVTIANSYWYTPLREACRRGNTGMVRLLLEKGADVNITDNKGFTPLHAAVSAEALEAATLILDSGADINIAGRYGDTPLHYAVGLGYEEFVRLFLARGADPTIRNDRGLTPRQLAEERGFASIVELFRNWGKNTI”, the protein production result is reported as “failed”.
The result for “MSLAQGRQVIGLDIGTTSTIAILVRLPDTVVAVASRPTTLSSPHPGWAEEDPAQWWDNARAVLAELKTTAGESDWRPGGICVTGMLPAVVLLDDRGAVLRPSIQQSDGRCGDEVAELRAEVDSEAFLARTGNGVTQQLVTAKLRWIERHEPAVFGAIATVCGSYDYINMLLTGERVVDRNWALEGGFIDLASGTVEADLVALAHIPPSAVPPAHPTHRVLGAVTAEAAALTGLPTGLPVYGGAADHIASALAAGITRPGDVLLKFGGAGDIIVASATAKSDPRLYLDYHLVPGLYAPNGCMAATGSALNWLAKLLAPEAGEAAHAQLDALAAEVPAGADGLVCLPYFLGEKTPIHDPFASGTFTGLSLSHTRGHLWRALLEAVALAFRHHVAVLDDIGHAPQRFFASDGGTRSRVWMGIMADVLQRPVQLLANPLGSAVGAAWVAAIGGGDDLGWDDVTALVRTGEKITPDPAKAEVYDRLYRDFSALYATLHPFFHRSREGHHHHHH” reads “not failed”.
With “MLAKVLKKRGAVLRGDFVLSSGRRSSVYIDMRRLLGDESSYSVALDLLLEVGGQDLARSSAVIGVATGGLPWAAMLALRLSKPLGYVRPERKGHGTLSQVEGDPPKGRVVVVDDVATTGTSIAKSIEVLRSNGYTVGTALVLVDRGEGAGELLARMGVRLVSVATLKTILEKLGWGGE”, the protein production result is given as “not failed”.
As to “MEGWDPNTKSTLTRIPLLTTKAGPRDGAAWTQRLKEEYKSLIAYTQMNKSNDNDWFRISASNPEGTRWTGKCWYVHNLLKYEFDLQFDIPITYPATAPELELPEIDGKTQKMYRGGKICLTVHFKPLWAKNCPRFGIAHALCLGLAPWLAAEIPILVDSGAIKHKDDAATSAES”, the protein production entry is on record as “failed”.
For “LFQIVEQSFGRPLSPYEIETLNQWIDVDHHDLSVIQAALDEALSQNKLSFKYIDRILLNWKKNNVKTVDDSKK”, the protein production entry is “not failed”.
